Data: US20250361326A1 (Hoffmann-La Roche, published 2025)

T1: VEGF (UniProt P15692-9 27-147)
T1 construct: also called VEGF121
T1 sequence (looked up): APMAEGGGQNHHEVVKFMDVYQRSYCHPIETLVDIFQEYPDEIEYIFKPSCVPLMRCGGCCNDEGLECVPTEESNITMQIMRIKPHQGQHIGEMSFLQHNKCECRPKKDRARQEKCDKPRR


Key:
VEGF [1] = target: T1, VEGF; test: bridging ELISA, VEGF coated, biocytinamid-Cy5 detection; binder has bio arm, no VEGF arm
VEGF [2] = target: T1, VEGF; test: bridging ELISA of exchange reaction mix, 1.3 µM input; VEGF coated, digoxygenin-Cy5 detection; highest value = 100%; binder has neither arm
VEGF [3] = target: T1, VEGF; test: bridging ELISA of exchange reaction mix, 1.3 µM input; VEGF coated, biocytinamid-Cy5 detection; highest value = 100%; binder has bio arm, no VEGF arm
VEGF [4] = target: T1, VEGF; test: bridging ELISA, VEGF coated, biocytinamid-Cy5 detection; binder has bio and PDGF arms, no VEGF arm
VEGF [5] = target: T1, VEGF; test: bridging ELISA, VEGF coated, biocytinamid-Cy5 or digoxygenin-Cy5 detection; binder has bio and dig arms, no VEGF arm
VEGF [6] = target: T1, VEGF; test: bridging ELISA of exchange reaction mix, 1.3 µM input; VEGF coated, digoxygenin-Cy5 detection; highest value = 100%; binder has dig arm, no VEGF arm
VEGF [7] = target: T1, VEGF; test: bridging ELISA, VEGF coated, digoxygenin-Cy5 detection; binder has dig arm, no VEGF arm
VEGF [8] = target: T1, VEGF; test: bridging ELISA of exchange reaction mix, 1.3 µM input; VEGF coated, biocytinamid-Cy5 detection; highest value = 100%; binder has neither arm
VEGF [9] = target: T1, VEGF; test: bridging ELISA, VEGF coated, digoxygenin-Cy5 detection; binder has dig and PDGF arms, no VEGF arm

Row | relative signal intensity (VEGF [2]) [%] | relative signal intensity (VEGF [3]) [%] | relative signal intensity (VEGF [6]) [%] | relative signal intensity (VEGF [8]) [%] | Binder | further results
1 | 7.2 | 9 |  |  | anti-bio/anti-fluos bispecific antibody (exchange reaction: bio MHCFcRP-knob-E357K row x fluos MHCFcRP-hole-K370E column) (bispecific antibody, human IgG1, kappa, Product of the 2/3-IgG exchange reaction, tested as reaction mix; human IgG1 knob-into-hole format; also called bio/fluos bsAb) heavy 1: not shown light 1: DIQMTQSPSSLSASVGDRVTITCRASGNIHNYLSWYQQKPGKVPKLLIYSAKTLADGVPSRFSGSGSGTDFTLTISSLQPEDVATYYCQHFWSSIYTFGQGTKLEIKRTVAAPSVFIFPPSDEQLKSGTASVVCLLNNFYPREAKVQWKVDNALQSGNSQESVTEQDSKDSTYSLSSTLTLSKADYEKHKVYACEVTHQGLSSPVTKSFNRGEC heavy 2: not shown light 2: DIVMTQTPLSLSVTPGQPASISCKSSQSLVHSNGNTYLRWYLQKPGQSPKVLIYKVSNRVSGVPDRFSGSGSGTDFTLKISRVEAEDVGVYYCSQSTHVPWTFGQGTKLEIKRTVAAPSVFIFPPSDEQLKSGTASVVCLLNNFYPREAKVQWKVDNALQSGNSQESVTEQDSKDSTYSLSSTLTLSKADYEKHKVYACEVTHQGLSSPVTKSFNRGEC | binding result (VEGF [1]): no binding (tested: 1.3 µM input molecule concentration)
2 | 6.1 | 10.1 |  |  | anti-bio/anti-PDGF bispecific antibody (exchange reaction: bio MHCFcRP-knob-E357K row x PDGF MHCFcRP-hole-K370E column) (bispecific antibody, human IgG1, not shown: small tags and cut ends, Product of the 2/3-IgG exchange reaction, tested as reaction mix; human IgG1 knob-into-hole format; also called bio/PDGF bsAb) heavy 1: not shown light 1: DIQMTQSPSSLSASVGDRVTITCRASGNIHNYLSWYQQKPGKVPKLLIYSAKTLADGVPSRFSGSGSGTDFTLTISSLQPEDVATYYCQHFWSSIYTFGQGTKLEIKRTVAAPSVFIFPPSDEQLKSGTASVVCLLNNFYPREAKVQWKVDNALQSGNSQESVTEQDSKDSTYSLSSTLTLSKADYEKHKVYACEVTHQGLSSPVTKSFNRGEC heavy 2: EVQLVESGGGLVQPGGSLRLSCAASGFTFSSYWMSWVRQAPEKGLEWVSTISDGGGLTYYADSVKGRFTISRDNAKNSLYLQMNSLRAEDTAVYYCAESGGYTDWLFGYWGQGTLVTVSSASTKGPSVFPLAPSSKSTSGGTAALGCLVKDYFPEPVTVSWNSGALTSGVHTFPAVLQSSGLYSLSSVVTVPSSSLGTQTYICNVNHKPSNTKVDKKVEPKSC light 2: not shown | binding result (VEGF [4]): no binding (tested: 1.3 µM input molecule concentration)
3 |  | 9.3 | 6.2 |  | anti-bio/anti-dig bispecific antibody (exchange reaction: bio MHCFcRP-knob-E357K row x dig MHCFcRP-hole-K370E column) (bispecific antibody, human IgG1, not shown: small tags and cut ends, Product of the 2/3-IgG exchange reaction, tested as reaction mix; human IgG1 knob-into-hole format; also called bio/dig bsAb) heavy 1: not shown light 1: DIQMTQSPSSLSASVGDRVTITCRASGNIHNYLSWYQQKPGKVPKLLIYSAKTLADGVPSRFSGSGSGTDFTLTISSLQPEDVATYYCQHFWSSIYTFGQGTKLEIKRTVAAPSVFIFPPSDEQLKSGTASVVCLLNNFYPREAKVQWKVDNALQSGNSQESVTEQDSKDSTYSLSSTLTLSKADYEKHKVYACEVTHQGLSSPVTKSFNRGEC heavy 2: QVQLVESGGGLVKPGGSLRLSCAASGFTFSDYAMSWIRQAPGKGLEWVSSINIGATYIYYADSVKGRFTISRDNAKNSLYLQMNSLRAEDTAVYYCARPGSPYEYDKAYYSMAYWGQGTTVTVSSASTKGPSVFPLAPSSKSTSGGTAALGCLVKDYFPEPVTVSWNSGALTSGVHTFPAVLQSSGLYSLSSVVTVPSSSLGTQTYICNVNHKPSNTKVDKKVEPKSC light 2: not shown | binding result (VEGF [5]): no binding (tested: 1.3 µM input molecule concentration)
4 | 6.5 | 10.2 |  |  | anti-fluos/anti-bio bispecific antibody (exchange reaction: fluos MHCFcRP-knob-E357K row x bio MHCFcRP-hole-K370E column) (bispecific antibody, human IgG1, kappa, Product of the 2/3-IgG exchange reaction, tested as reaction mix; human IgG1 knob-into-hole format; also called fluos/bio bsAb) heavy 1: not shown light 1: DIVMTQTPLSLSVTPGQPASISCKSSQSLVHSNGNTYLRWYLQKPGQSPKVLIYKVSNRVSGVPDRFSGSGSGTDFTLKISRVEAEDVGVYYCSQSTHVPWTFGQGTKLEIKRTVAAPSVFIFPPSDEQLKSGTASVVCLLNNFYPREAKVQWKVDNALQSGNSQESVTEQDSKDSTYSLSSTLTLSKADYEKHKVYACEVTHQGLSSPVTKSFNRGEC heavy 2: not shown light 2: DIQMTQSPSSLSASVGDRVTITCRASGNIHNYLSWYQQKPGKVPKLLIYSAKTLADGVPSRFSGSGSGTDFTLTISSLQPEDVATYYCQHFWSSIYTFGQGTKLEIKRTVAAPSVFIFPPSDEQLKSGTASVVCLLNNFYPREAKVQWKVDNALQSGNSQESVTEQDSKDSTYSLSSTLTLSKADYEKHKVYACEVTHQGLSSPVTKSFNRGEC | binding result (VEGF [1]): no binding (tested: 1.3 µM input molecule concentration)
5 |  | 9 | 6.2 |  | anti-dig/anti-bio bispecific antibody (exchange reaction: dig MHCFcRP-knob-E357K row x bio MHCFcRP-hole-K370E column) (bispecific antibody, human IgG1, not shown: small tags and cut ends, Product of the 2/3-IgG exchange reaction, tested as reaction mix; human IgG1 knob-into-hole format; also called dig/bio bsAb) heavy 1: QVQLVESGGGLVKPGGSLRLSCAASGFTFSDYAMSWIRQAPGKGLEWVSSINIGATYIYYADSVKGRFTISRDNAKNSLYLQMNSLRAEDTAVYYCARPGSPYEYDKAYYSMAYWGQGTTVTVSSASTKGPSVFPLAPSSKSTSGGTAALGCLVKDYFPEPVTVSWNSGALTSGVHTFPAVLQSSGLYSLSSVVTVPSSSLGTQTYICNVNHKPSNTKVDKKVEPKSC light 1: not shown heavy 2: not shown light 2: DIQMTQSPSSLSASVGDRVTITCRASGNIHNYLSWYQQKPGKVPKLLIYSAKTLADGVPSRFSGSGSGTDFTLTISSLQPEDVATYYCQHFWSSIYTFGQGTKLEIKRTVAAPSVFIFPPSDEQLKSGTASVVCLLNNFYPREAKVQWKVDNALQSGNSQESVTEQDSKDSTYSLSSTLTLSKADYEKHKVYACEVTHQGLSSPVTKSFNRGEC | binding result (VEGF [5]): no binding (tested: 1.3 µM input molecule concentration)
6 | 6 | 10.5 |  |  | anti-PDGF/anti-bio bispecific antibody (exchange reaction: PDGF MHCFcRP-knob-E357K row x bio MHCFcRP-hole-K370E column) (bispecific antibody, human IgG1, not shown: small tags and cut ends, Product of the 2/3-IgG exchange reaction, tested as reaction mix; human IgG1 knob-into-hole format; also called PDGF/bio bsAb) heavy 1: EVQLVESGGGLVQPGGSLRLSCAASGFTFSSYWMSWVRQAPEKGLEWVSTISDGGGLTYYADSVKGRFTISRDNAKNSLYLQMNSLRAEDTAVYYCAESGGYTDWLFGYWGQGTLVTVSSASTKGPSVFPLAPSSKSTSGGTAALGCLVKDYFPEPVTVSWNSGALTSGVHTFPAVLQSSGLYSLSSVVTVPSSSLGTQTYICNVNHKPSNTKVDKKVEPKSC light 1: not shown heavy 2: not shown light 2: DIQMTQSPSSLSASVGDRVTITCRASGNIHNYLSWYQQKPGKVPKLLIYSAKTLADGVPSRFSGSGSGTDFTLTISSLQPEDVATYYCQHFWSSIYTFGQGTKLEIKRTVAAPSVFIFPPSDEQLKSGTASVVCLLNNFYPREAKVQWKVDNALQSGNSQESVTEQDSKDSTYSLSSTLTLSKADYEKHKVYACEVTHQGLSSPVTKSFNRGEC | binding result (VEGF [4]): no binding (tested: 1.3 µM input molecule concentration)
7 |  |  | 6.3 | 9.4 | anti-fluos/anti-dig bispecific antibody (exchange reaction: fluos MHCFcRP-knob-E357K row x dig MHCFcRP-hole-K370E column) (bispecific antibody, human IgG1, not shown: small tags and cut ends, Product of the 2/3-IgG exchange reaction, tested as reaction mix; human IgG1 knob-into-hole format; also called fluos/dig bsAb) heavy 1: not shown light 1: DIVMTQTPLSLSVTPGQPASISCKSSQSLVHSNGNTYLRWYLQKPGQSPKVLIYKVSNRVSGVPDRFSGSGSGTDFTLKISRVEAEDVGVYYCSQSTHVPWTFGQGTKLEIKRTVAAPSVFIFPPSDEQLKSGTASVVCLLNNFYPREAKVQWKVDNALQSGNSQESVTEQDSKDSTYSLSSTLTLSKADYEKHKVYACEVTHQGLSSPVTKSFNRGEC heavy 2: QVQLVESGGGLVKPGGSLRLSCAASGFTFSDYAMSWIRQAPGKGLEWVSSINIGATYIYYADSVKGRFTISRDNAKNSLYLQMNSLRAEDTAVYYCARPGSPYEYDKAYYSMAYWGQGTTVTVSSASTKGPSVFPLAPSSKSTSGGTAALGCLVKDYFPEPVTVSWNSGALTSGVHTFPAVLQSSGLYSLSSVVTVPSSSLGTQTYICNVNHKPSNTKVDKKVEPKSC light 2: not shown | binding result (VEGF [7]): no binding (tested: 1.3 µM input molecule concentration)
8 |  |  | 7 | 9.9 | anti-dig/anti-PDGF bispecific antibody (exchange reaction: dig MHCFcRP-knob-E357K row x PDGF MHCFcRP-hole-K370E column) (bispecific antibody, human IgG1, not shown: small tags and cut ends, Product of the 2/3-IgG exchange reaction, tested as reaction mix; human IgG1 knob-into-hole format; also called dig/PDGF bsAb) heavy 1: QVQLVESGGGLVKPGGSLRLSCAASGFTFSDYAMSWIRQAPGKGLEWVSSINIGATYIYYADSVKGRFTISRDNAKNSLYLQMNSLRAEDTAVYYCARPGSPYEYDKAYYSMAYWGQGTTVTVSSASTKGPSVFPLAPSSKSTSGGTAALGCLVKDYFPEPVTVSWNSGALTSGVHTFPAVLQSSGLYSLSSVVTVPSSSLGTQTYICNVNHKPSNTKVDKKVEPKSC light 1: not shown heavy 2: EVQLVESGGGLVQPGGSLRLSCAASGFTFSSYWMSWVRQAPEKGLEWVSTISDGGGLTYYADSVKGRFTISRDNAKNSLYLQMNSLRAEDTAVYYCAESGGYTDWLFGYWGQGTLVTVSSASTKGPSVFPLAPSSKSTSGGTAALGCLVKDYFPEPVTVSWNSGALTSGVHTFPAVLQSSGLYSLSSVVTVPSSSLGTQTYICNVNHKPSNTKVDKKVEPKSC light 2: not shown | binding result (VEGF [9]): no binding (tested: 1.3 µM input molecule concentration)
9 |  |  | 5.9 | 9.2 | anti-PDGF/anti-dig bispecific antibody (exchange reaction: PDGF MHCFcRP-knob-E357K row x dig MHCFcRP-hole-K370E column) (bispecific antibody, human IgG1, not shown: small tags and cut ends, Product of the 2/3-IgG exchange reaction, tested as reaction mix; human IgG1 knob-into-hole format; also called PDGF/dig bsAb) heavy 1: EVQLVESGGGLVQPGGSLRLSCAASGFTFSSYWMSWVRQAPEKGLEWVSTISDGGGLTYYADSVKGRFTISRDNAKNSLYLQMNSLRAEDTAVYYCAESGGYTDWLFGYWGQGTLVTVSSASTKGPSVFPLAPSSKSTSGGTAALGCLVKDYFPEPVTVSWNSGALTSGVHTFPAVLQSSGLYSLSSVVTVPSSSLGTQTYICNVNHKPSNTKVDKKVEPKSC light 1: not shown heavy 2: QVQLVESGGGLVKPGGSLRLSCAASGFTFSDYAMSWIRQAPGKGLEWVSSINIGATYIYYADSVKGRFTISRDNAKNSLYLQMNSLRAEDTAVYYCARPGSPYEYDKAYYSMAYWGQGTTVTVSSASTKGPSVFPLAPSSKSTSGGTAALGCLVKDYFPEPVTVSWNSGALTSGVHTFPAVLQSSGLYSLSSVVTVPSSSLGTQTYICNVNHKPSNTKVDKKVEPKSC light 2: not shown | binding result (VEGF [9]): no binding (tested: 1.3 µM input molecule concentration)
